Source: paper PMC10597343

Molecular target: T1, AcrR (Escherichia coli) (UniProt P0ACS9)
T1 sequence: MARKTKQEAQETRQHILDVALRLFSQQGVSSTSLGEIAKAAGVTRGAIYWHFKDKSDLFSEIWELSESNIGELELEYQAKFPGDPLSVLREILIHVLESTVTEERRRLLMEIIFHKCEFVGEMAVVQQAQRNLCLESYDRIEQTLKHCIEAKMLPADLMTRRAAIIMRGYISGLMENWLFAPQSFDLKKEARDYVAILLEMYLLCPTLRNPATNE
Assay: EMSA
Conditions: EMSA with LightShift Chemiluminescent EMSA Kit, AcrR 0, 0.4 and 1 uM, as in ref 35; buffer, salt, pH and temperature not stated

Sequence | binding
CTTGCCATGCGATTTCCTTTTATCTTTCGACACGTAAAACGAATACCGGGGTTATCGGTCTGAATTGCGCAAAGTTTACGTTTAATTGTTTTTTTTAATAGCGGGAATAAGGGGCAGAGAAAAGAGTATTTCGGCGACTAACAAAAAATGGCTGTTTTTGAAAAAAATTCTAAAGGTTGTTTTACGACAGACGATAACAGGGTTGACGGCGATTGAGCCGACGGGTGGAAACCCAATACGTAATCAACGA (double strand) [fliDSTp] | no binding
TGCAAGTAGTAAATATGACAAGTTGATGTCATAAATGTGTTTCAGCAACTCGGAGGTATGCATTATTCCCACCCAGAATAACCAACTTTATTTTTATGCGGTTTCACCGCACCCCGTGATGTCGCCGGGAAGCCCCGGTAAAAAATAATTAGCATTAGAATAGTTGCGAT (double strand) [flhDCpS2] | no binding
